Measurements published in the supplement of paper PMC7125110.
± gives the standard error. Fewer inactive variants are shown than the library holds.

B1: glmS ribozyme (parent)
chain: AUAAAAGCGCCAGAACUACAGAAAUGUAGUUGACGAGGAGGAGGUUUAUCGAAUUUUCGGCGGAUGCCUCCAAA

Variants of: B1
Test: self-cleavage kobs at 2500 uM GlcN6P; higher = faster cleavage; RNA array
Conditions: with glucosamine-6-phosphate
Procedure, shortened: (§1)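 Tracking of barcoded ribozyme variants used a hybridised Cy3 probe at 37 °C, after in situ transcription by E. coli RNA polymerase on sequenced MiSeq chips. The flowed solution held 40 μM to 10 mM glucosamine-6-phosphate in HEPES/KCl/Mg(OAc)2 buffer, and imaging ran over ~14 h. kobs was taken from exponential decay fits of normalised per-tile medians, and kcat and KM from weighted Michaelis–Menten fits.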

| Variant | self-cleavage kobs at 2500 uM GlcN6P |
| --- | --- |
| AUAAAAGCGCCAGAACUACAGAAAUGUAGUUGACGAAGAGGAGGUUUAGCGAAUUUUCGGCGGAUGCCUUCAAA [G37A U49G C70U] | 7.97e-05 ± 2e-05 s⁻¹ |
| AUAAAAGCGCCAGAACUACAGAAAUGUAGUUGACGUGGAGGAGGUUUAUCGAAUUUUGGGCGGAUGCCUUCAAA [A36U C58G C70U] | 6.88e-05 ± 2.4e-05 s⁻¹ |
| AUAAAAGCGCCAGAACUACAGAAAUGUAGUUGACGAGAAGGAGGUUUAUAGAAUUUUCGGCGGCUGCCUCCAAA [G38A C50A A64C] | < 1e-05 s⁻¹ |
| AUAAAAGCGCCAGAACUACAGAAAUGUAGUUGACGGGGAGGAGGUUUAUCGCAUUUUCGGCGGAUGCUUCCAAA [A36G A52C C68U] | < 1e-05 s⁻¹ |
| AUAAAAGCGCCAGAACUACAGAAAUGUAGUUGACGAGAAGGAGGCUUAUCGUAUUUUCGGCGGAUGCCUCCAAA [G38A U45C A52U] | < 1e-05 s⁻¹ |
| AUAAAAGCGCCAGAACUACAGAAAUGUAGUUGACGAGUAGGAGGUUUAUCGAAUAUUCGGCAGAUGCCGCCAAA [G38U U55A G62A U69G] | 0.0012 ± 0.00058 s⁻¹ |
| AUAAAAGCGCCAGAACUACAGAAAUGUAGUUGACGAGUGGGAGGUUUAUCGAAUUUUUUGCGGAUGCCUCCAAA [G38U A39G C58U G59U] | < 1e-05 s⁻¹ |
| AUAAAAGCGCCAGAACUACAGAAAUGUAGUUGACGAAGAGGAGGUUUAACGGAUUUUCGGCGGAUGCCUCCAAA [G37A U49A A52G] | < 1e-05 s⁻¹ |
| AUAAAAGCGCCAGAACUACAGAAAUGUAGUUGACGCGGAGAAGGUUUAUCGAAUUGUCGACGGAUGCUUCCAAA [A36C G41A U56G G60A C68U] | < 1e-05 s⁻¹ |
| AUAAAAGCGCCAGAACUACAGAAAUGUAGUUGACGUGGAGGAGGUUUAUCGAAUCUUCGGCGGAUGCCUGCAAA [A36U U55C C70G] | < 1e-05 s⁻¹ |
| AUAAAAGCGCCAGAACUACAGAAAUGUAGUUGACGAUGAGGAGGUUUAGCGAAUUUCCGGCGGAUGCCUCCAAA [G37U U49G U57C] | < 1e-05 s⁻¹ |
| AUAAAAGCGCCAGAACUACAGAAAUGUAGUUGACGGGGAGGAGGUUUAUCGUAUUUUCGGCGGGUGCCUCCAAA [A36G A52U A64G] | < 1e-05 s⁻¹ |
| AUAAAAGCGCCAGAACUACAGAAAUGUAGUUGACGAGUAUGAGGUUUUUCGAAUUUUCGGCGGAUGCGUCCAAA [G38U G40U A48U C68G] | < 1e-05 s⁻¹ |
| AUAAAAGCGCCAGAACUACAGAAAUGUAGUUGACGCGGAGGAGGUUUAUCGAAUUUUCUUCGGAUGCCUGCAAA [A36C G59U G60U C70G] | < 1e-05 s⁻¹ |
| AUAAAAGCGCCAGAACUACAGAAAUGUAGUUGACGUGGGGGAGGUUUAUCGAAUUUUCGGCGGAUGGCUCCAAA [A36U A39G C67G] | < 1e-05 s⁻¹ |
| AUAAAAGCGCCAGAACUACAGAAAUGUAGUUGACGACGAGUAGGUUUCUCGAAUUUUCGGCGGAUGCCUCCAAA [G37C G41U A48C] | < 1e-05 s⁻¹ |
| AUAAAAGCGCCAGAACUACAGAAAUGUAGUUGACGAGCAGGACGUUUAUCGAAUUGUCGGCGGAUGACACCAAA [G38C G43C U56G C67A U69A] | < 1e-05 s⁻¹ |

| Variant | self-cleavage kobs at 2500 uM GlcN6P |
| --- | --- |
| AUAAAAGCGCCAGAACUACAGAAAUGUAGUUGACGAGGCGGCGGUUUAUCGAAUUUUCGGCGGAUACCUCCAAA [A39C A42C G66A] | 0.00014 ± 4.5e-05 s⁻¹ |
| AUAAAAGCGCCAGAACUACAGAAAUGUAGUUGACGACGAGGAGGUUCAUCGAAUUUUAGGCGGAUGCCUCCAAA [G37C U47C C58A] | < 1e-05 s⁻¹ |
| AUAAAAGCGCCAGAACUACAGAAAUGUAGUUGACGCAGCGGAGGUUUAUUGACUUUUCGGCGGAUGCCUCCAAA [A36C G37A A39C C50U A53C] | < 1e-05 s⁻¹ |
| AUAAAAGCGCCAGAACUACAGAAAUGUAGUUGACGAUGAGGACGUUUCUCGAAUUUUCGGUGUAUGCCUCCAAA [G37U G43C A48C C61U G63U] | < 1e-05 s⁻¹ |
| AUAAAAGCGCCAGAACUACAGAAAUGUAGUUGACGACGAGGCGGUUUAUCGAAUUUUCGGCGGAUGCCACCAAA [G37C A42C U69A] | < 1e-05 s⁻¹ |
| AUAAAAGCGCCAGAACUACAGAAAUGUAGUUGACGAGUAGGAGGUUUAUCGAAUUUUCGGCGGAAGCCUGCAAA [G38U U65A C70G] | 0.000107 ± 3.6e-05 s⁻¹ |
| AUAAAAGCGCCAGAACUACAGAAAUGUAGUUGACGGGGAGGAGGUUUAGCGAAUGUUCGGCGGAUGCCUCCAAA [A36G U49G U55G] | < 1e-05 s⁻¹ |
| AUAAAAGCGCCAGAACUACAGAAAUGUAGUUGACGCGGAGGACGUUUAUGGAAUUUUCGGCGGAUGCAUCCAAA [A36C G43C C50G C68A] | < 1e-05 s⁻¹ |
| AUAAAAGCGCCAGAACUACAGAAAUGUAGUUGACGAGCAGGAGGUGUAUCGAAUUUUCGGCGGAUGCGUCCAAA [G38C U46G C68G] | < 1e-05 s⁻¹ |
| AUAAAAGCGCCAGAACUACAGAAAUGUAGUUGACGAGUAGGAGGUUUAUCGAAUUUACGCCGGAUUCCUCCAAA [G38U U57A G60C G66U] | < 1e-05 s⁻¹ |
| AUAAAAGCGCCAGAACUACAGAAAUGUAGUUGACGCGGAGGAGGUUUAGCGAAUUUUCGGCGCAUGCCUCCAAA [A36C U49G G63C] | < 1e-05 s⁻¹ |
| AUAAAAGCGCCAGAACUACAGAAAUGUAGUUGACGAGGCGGGGGUUUAUCGUAUUUUCGGCGGAUGCCUCCAAA [A39C A42G A52U] | 6.4e-05 ± 1.5e-05 s⁻¹ |
| AUAAAAGCGCCAGAACUACAGAAAUGUAGUUGACGCAAAGGAGGUUUAUCGAAUUAUCGGCGGAUGCGUCCAAA [A36C G37A G38A U56A C68G] | 6.64e-05 ± 2.3e-05 s⁻¹ |
| AUAAAAGCGCCAGAACUACAGAAAUGUAGUUGACGAAGAGGAGCUUUAUCGAAUUUUCGGCGGAUGCCUCCAAA [G37A G44C] | 4.54e-05 ± 1.3e-05 s⁻¹ |
| AUAAAAGCGCCAGAACUACAGAAAUGUAGUUGACGAGUAGUAGGUUUAUGGAAUUUUCGGCGGAUGCGUCCAAA [G38U G41U C50G C68G] | < 1e-05 s⁻¹ |
| AUAAAAGCGCCAGAACUACAGAAAUGUAGUUGACGAGCAGGAGGUUCAACGAAUUUUCGGCGGAUGCCUCCAAA [G38C U47C U49A] | < 1e-05 s⁻¹ |
| AUAAAAGCGCCAGAACUACAGAAAUGUAGUUGACGAGCAGGAGGUUUAUCGAAUUUACGGCGUAUGCCUCCAAA [G38C U57A G63U] | < 1e-05 s⁻¹ |

Variants of: B1
Test: self-cleavage kobs at 10000 uM GlcN6P; higher = faster cleavage; RNA array
Conditions: with glucosamine-6-phosphate
Procedure, shortened: as §1

| Variant | self-cleavage kobs at 10000 uM GlcN6P |
| --- | --- |
| AUAAAAGCGCCAGAACUACAGAAAUGUAGUUGACGAAGAGGAGGUUUAACGGAUUUUCGGCGGAUGCCUCCAAA [G37A U49A A52G] | < 1e-05 s⁻¹ |
| AUAAAAGCGCCAGAACUACAGAAAUGUAGUUGACGCGGAGAAGGUUUAUCGAAUUGUCGACGGAUGCUUCCAAA [A36C G41A U56G G60A C68U] | < 1e-05 s⁻¹ |
| AUAAAAGCGCCAGAACUACAGAAAUGUAGUUGACGCAGCGGAGGUUUAUUGACUUUUCGGCGGAUGCCUCCAAA [A36C G37A A39C C50U A53C] | < 1e-05 s⁻¹ |
